According to patent publication US20190127480A1:

Assays:
[1] = molecular target: human CD3 expressed on cells (Jurkat cells; human T-cells of PBMC) (human) (UniProt P09693); assay: cell-based or functional assay
[2] = molecular target: human CD3 expressed on cells (Jurkat cells; human T-cells of PBMC) (human) (UniProt P09693); assay: FACS titration on Jurkat cells (CD3+ human T-cell line)
[3] = molecular target: cynomolgus monkey CD3 expressed on monkey T-cells (PBMCs) (cynomolgus monkey) (UniProt Q95LI5); assay: cell-based or functional assay
Sequence of cynomolgus monkey CD3 expressed on monkey T-cells (PBMCs) (cynomolgus monkey) (Q95LI5 22-198, chain 1 of 2): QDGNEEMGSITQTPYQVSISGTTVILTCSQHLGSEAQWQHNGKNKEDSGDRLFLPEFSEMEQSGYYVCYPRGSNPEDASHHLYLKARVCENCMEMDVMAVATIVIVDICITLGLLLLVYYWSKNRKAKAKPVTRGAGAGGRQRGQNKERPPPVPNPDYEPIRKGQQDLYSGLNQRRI
Sequence of cynomolgus monkey CD3 expressed on monkey T-cells (PBMCs) (cynomolgus monkey) (Q95LI8 22-171, chain 2 of 2, further chain): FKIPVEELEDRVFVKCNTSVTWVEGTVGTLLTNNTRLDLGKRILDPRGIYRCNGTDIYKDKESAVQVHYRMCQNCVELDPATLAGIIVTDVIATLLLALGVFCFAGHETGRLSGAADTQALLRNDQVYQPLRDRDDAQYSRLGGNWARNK

[4] = molecular target: cynomolgus monkey CD3 expressed on monkey T-cells (PBMCs) (cynomolgus monkey) (UniProt Q95LI5); assay: FACS titration on monkey PBMCs, gated on CD2+CD4+ T cells

Sequence of human CD3 expressed on cells (Jurkat cells; human T-cells of PBMC) (human) (chain, as listed by the source, chain 1 of 4): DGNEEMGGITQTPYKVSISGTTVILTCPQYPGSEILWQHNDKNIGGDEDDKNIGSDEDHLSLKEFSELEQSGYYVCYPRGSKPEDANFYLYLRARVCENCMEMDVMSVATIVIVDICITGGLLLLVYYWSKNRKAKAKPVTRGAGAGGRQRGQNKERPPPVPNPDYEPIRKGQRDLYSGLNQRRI
Sequence of human CD3 expressed on cells (Jurkat cells; human T-cells of PBMC) (human) (chain, as listed by the source, chain 2 of 4): as the sequence (Q95LI8 22-171, chain 2 of 2, further chain) above, with V5I, K15N, V20I, T32S, N33D, N34I, A64T, N74S, L83V, R141H counted along it
Sequence of human CD3 expressed on cells (Jurkat cells; human T-cells of PBMC) (human) (P09693 23-182, chain 3 of 4): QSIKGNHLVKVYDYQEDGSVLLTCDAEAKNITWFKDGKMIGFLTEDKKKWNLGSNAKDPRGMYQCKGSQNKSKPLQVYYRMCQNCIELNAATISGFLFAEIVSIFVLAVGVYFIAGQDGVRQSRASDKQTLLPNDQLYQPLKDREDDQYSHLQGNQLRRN
Sequence of human CD3 expressed on cells (Jurkat cells; human T-cells of PBMC) (human) (P20963 22-164, chain 4 of 4): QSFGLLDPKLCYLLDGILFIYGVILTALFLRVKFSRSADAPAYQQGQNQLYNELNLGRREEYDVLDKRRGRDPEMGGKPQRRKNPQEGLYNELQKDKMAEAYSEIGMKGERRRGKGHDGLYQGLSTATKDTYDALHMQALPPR

Substance	U937 Cytotoxicity Human T-cells [1]	further results
Isotype Ctrl (irrelevant isotype matched antibody, monovalent 1-arm mAb tables)	0 pM	
Isotype Ctrl (irrelevant isotype matched antibody, human Fc mAb tables)	0 pM	
OKT-3, mouse monoclonal antibody against human T-cell surface antigens (ATCC CRL-8001)	2.35 pM	EC50 [M] hPBMC Proliferation [1]: 3.3e-13 M; EC50 [2]: 0.196 nM
SP34, commercially available mouse monoclonal antibody reactive against the epsilon chain of the T3 complex on human T lymphocyte cells		EC50 [M] mfPBMC Proliferation [3]: 1.71e-12 M; EC50 [4]: 0.0703 nM
Isotype Ctrl (irrelevant isotype matched antibody, hybridoma mAb table)	0 pM	
